From PMC1904107 come the findings set out here.

The test deals with caldesmon(302–564) (UniProt Q05682). Description: fluorescence cross-correlation spectroscopy.

“CaM(1–149) (from UniProt P0DP23 1-149) (natural protein)” displayed a dissociation constant (Kd) of 500 nM.

By Kd is commonly meant the concentration at which binding is half-saturated.
